Laboratory results as given in patent US20200239579A1 (Genmab, published 2020).

B1: IgG1-547-FEAR (antibody, V domains shown)
VH: EVQLLEPGGGLVQPGGSLRLSCEASGSTFSTYAMSWVRQAPGKGLEWVSGFSGSGGFTFYADSVRGRFTISRDSSKNTLFLQMSSLRAEDTAVYYCAIPARGYNYGSFQHWGQGTLVTVSS
VL: SYVLTQPPSVSVAPGQTARITCGGNNIGSKSVHWYQQKPGQAPVLVVYDDNDRPSGLPERFSGSNSGNTATLTISRVEAGDEADYYCQVWDSSSDHVVFGGGTKLTVLG
B2: IgG1-338-FEAR (antibody, V domains shown)
VH: EVQVVESGGGLVQPGGSLRLSCAASGFTFSRFWMSWVRQAPGKGLEWVANIKQDGGEKYYVDSVKGRFTISRDNAKNSLYLQMNSLRGEDTAVYYCARDDNWNGHFDYWGQGTLVTVSS
VL: DIQMTQSPSTLSASVGDRVTITCRASQSISSWLAWYQQKPGKAPNLLIYKASSLESGVPSRFSGSGSGTEFTLTISSLQPDDFATYYCQQYYGSYITFGQGTRLEIKR
B3: IgG1-511-LC33S-FEAR (antibody, V domains shown)
VH: QVQLVQSGSELKKPGASVMVSCKASGYTFTSYVMNWVRQAPGQGLEWMGWINSYTGNPTSAQGFTGRFVFSFDTSVNTAYLQISSLKAEDTAVYYCARGYCTSTSCYLDYWGQGTLVTVSS
VL: SYELTQPPSVSVSPGHTARITCSGDALPKKYASWFQQKSGQAPVLVIYEDSKRPSGIPERFSGSTSGTMATLTISGAQVEDETDYYCYSADTSGTHRVFGGGTKLTVLG

How the values were obtained:
[1] = target: T1, cynomolgus PD-L1/137-H1 protein (Acro Biosystems, cat. No. PD1-052H4-100) (cynomolgus, UniProt G7PSE7 19-239); experiment: BLI (Octet HTX), average of 3 experiments
T1 construct: also called cynomolgus PD-L1 (BLI)
T1 sequence (G7PSE7 entry or part of it): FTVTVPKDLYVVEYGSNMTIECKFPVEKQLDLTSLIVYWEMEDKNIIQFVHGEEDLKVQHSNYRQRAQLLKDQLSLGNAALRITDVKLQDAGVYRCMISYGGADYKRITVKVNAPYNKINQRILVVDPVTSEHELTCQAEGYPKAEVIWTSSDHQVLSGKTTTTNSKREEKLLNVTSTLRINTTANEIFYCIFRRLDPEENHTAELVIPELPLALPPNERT
Experimental: (§1) In a first set of experiments, affinities for recombinant-expressed human PD-L1 protein were determined using Bio-layer interferometry (BLI) on an Octet HTX instrument (ForteBio). Anti-Human IgG Fc Capture (AHC) biosensors (ForteBio) were loaded for 900 s with antibodies (1 μg/ml). […] The experiment was carried out while shaking at 1000 rpm at 30° C. Data was analyzed with Data Analysis Software v9.0.0.12 (ForteBio) using the 1:1 model and a global full fit with 1000 s association time and 200 or 1000 s dissociation time. Data traces were corrected by subtraction of a buffer reference, the Y-axis was aligned to the last 10 s of the baseline, and interstep correction as well as Savitzky-Golay filtering was applied. Data traces with a response <0.05 nm were excluded from analysis. As default, the fit using 1000 s dissociation time was used.
The experimental set-up was as described above, with the exception of [0466] Loading time of AHC biosensors with antibodies was 600 s; [0467] Baseline was 300 s; [0468]

[2] = target: T2, PDLoneECDHisCtag (human, UniProt Q9NZQ7 19-238); experiment: BLI cross-block, second antibody on PDLoneECDHisCtag held by immobilised 547; bold = blocking
T2 construct: Expressed in HEK-293F cells; theoretical molecular weight 29 kDa; also called recombinant human PD-L1 ECD; human PD-L1 (BLI); not shown: C-terminal His-tag; C-tag
T2 sequence (Q9NZQ7 19-238, form in doubt): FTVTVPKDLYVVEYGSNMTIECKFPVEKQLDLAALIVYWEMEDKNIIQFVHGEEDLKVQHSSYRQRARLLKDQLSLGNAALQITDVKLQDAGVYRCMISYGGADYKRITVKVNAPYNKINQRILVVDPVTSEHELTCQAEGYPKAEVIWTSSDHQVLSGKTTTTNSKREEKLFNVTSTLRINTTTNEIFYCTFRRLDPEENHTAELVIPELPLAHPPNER
Experimental: (§2) Antibody cross-block testing was performed using biolayer interferometry (BLI) on an Octet HTX instrument (ForteBio). Antibodies (20 μg/ml in 10 mM sodium acetate buffer pH 6.0 (ForteBio)) were immobilized on Amine-Reactive 2nd Generation (AR2G) biosensors (ForteBio) according to the instructions of the manufacturer. After a baseline (50 s) in Sample Diluent (ForteBio), biosensors containing immobilized antibodies were loaded for 500 s with PDLoneECDHisCtag (100 nM or 2.7 μg/ml), after which the association response of a second antibody (10 μg/ml) was followed for 500 s. Biosensors were regenerated by using 3 times 5 s alternating exposures to 10 mM glycine pH 2.5 and Sample Diluent. The experiment was repeated with a new set of second antibodies starting from the baseline step. Each biosensor was used 6 times. The experiment was performed at 30° C. using a shaker speed of 1000 rpm. Data was analyzed using Data Analysis Software v9.0.0.12 (ForteBio). The Y-axis was aligned to the association step and Savitzky-Golay filtering was applied. The average buffer response was subtracted from the association response of the second antibody in order to correct for the dissociation of PDLoneECDHisCtag from the immobilized antibody. The corrected association responses were plotted in a matrix format.

[3] = target: T2, PDLoneECDHisCtag; experiment: BLI (Octet HTX); antibody on anti-human IgG Fc capture sensor, PDLoneECDHisCtag as analyte; 1:1 global fit
Experimental: as §1

[4] = target: T2, PDLoneECDHisCtag; experiment: BLI cross-block, second antibody on PDLoneECDHisCtag held by immobilised MEDI; bold = blocking
Experimental: as §2

[5] = target: T2, PDLoneECDHisCtag; experiment: BLI cross-block, second antibody on PDLoneECDHisCtag held by immobilised MPDL; bold = blocking
Experimental: as §2

[6] = target: T2, PDLoneECDHisCtag; experiment: BLI cross-block, second antibody on PDLoneECDHisCtag held by immobilised 632; plain = non-blocking
Experimental: as §2

[7] = target: T2, PDLoneECDHisCtag; experiment: BLI cross-block, second antibody on PDLoneECDHisCtag held by immobilised 421-LC91S; bold = blocking
Experimental: as §2

[8] = target: T2, PDLoneECDHisCtag; experiment: BLI cross-block, second antibody on PDLoneECDHisCtag held by immobilised 511-LC33S; plain = non-blocking
Experimental: as §2

[9] = target: T3, cynomolgus monkey PD-L1 (full length, on CHO cells) (cynomolgus monkey (Macaca fascicularis), UniProt G7PSE7 19-290); experiment: flow cytometry on CHO cells transfected with cynomolgus PD-L1, PE anti-human IgG secondary, MFI (PE)
T3 construct: whole, on cells; also called PDL1 Mf; cynomolgus PD-L1
T3 sequence (G7PSE7 entry or part of it): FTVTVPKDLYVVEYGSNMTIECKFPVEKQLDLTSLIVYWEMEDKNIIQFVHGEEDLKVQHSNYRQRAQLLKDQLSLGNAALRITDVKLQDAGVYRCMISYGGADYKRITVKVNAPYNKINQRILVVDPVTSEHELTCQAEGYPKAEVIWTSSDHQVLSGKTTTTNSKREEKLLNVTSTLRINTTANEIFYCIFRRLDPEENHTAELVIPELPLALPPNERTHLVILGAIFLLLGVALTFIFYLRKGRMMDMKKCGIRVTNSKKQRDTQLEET
Experimental: (§3) Cells (3-5×10⁴ cells/well) were incubated in polystyrene 96-well round-bottom plates (Greiner bio-one, cat. no. 650101) with serial dilutions of antibodies (range 0.0001 to 10 μg/mL in 5-fold dilution steps) in 50 μL PBS/0.1% BSA/0.02% azide (staining buffer) at 4° C. for 30 min.
(§4) After washing twice in staining buffer, cells were incubated in 50 μL secondary antibody at 4° C. for 30 min. As a secondary antibody, R-Phycoerythrin (PE)-conjugated goat-anti-human IgG F(ab′)₂ (Cat. no. 109-116-098, Jackson ImmunoResearch Laboratories, Inc., West Grove, Pa.) diluted 1:500 in staining buffer, was used for all experiments. Next, cells were washed twice in staining buffer, re-suspended in 20 μL staining buffer and analyzed on an iQue screener (Intellicyt Corporation, USA). Binding curves were analyzed using non-linear regression (sigmoidal dose-response with variable slope) using GraphPad Prism V75.04 software (GraphPad Software, San Diego, Calif., USA).
Binding to CHO cells expressing cynomolgus PD-L1 was determined by flow cytometry using a method as described above.

[10] = target: T2, PDLoneECDHisCtag; experiment: BLI cross-block, second antibody on PDLoneECDHisCtag held by immobilised 511-LC33S; bold = blocking
Experimental: as §2

[11] = target: T4, human PD-L1 (full length, on cells) (human, UniProt Q9NZQ7 19-290); experiment: flow cytometry on PC3 cells, PE anti-human IgG secondary, MFI (PE)
T4 construct: The entry holds the signal peptide; also called CD274; B7H1
T4 sequence (Q9NZQ7 19-290 limits assumed): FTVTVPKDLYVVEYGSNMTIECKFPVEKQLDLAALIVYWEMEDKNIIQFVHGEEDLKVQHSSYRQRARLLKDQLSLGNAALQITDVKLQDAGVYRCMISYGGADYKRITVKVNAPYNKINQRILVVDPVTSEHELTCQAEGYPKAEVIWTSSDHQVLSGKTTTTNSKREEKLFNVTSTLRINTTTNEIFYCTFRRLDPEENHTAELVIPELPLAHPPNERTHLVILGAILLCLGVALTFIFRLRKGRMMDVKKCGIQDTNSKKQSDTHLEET
Experimental: as §3, §4

[12] = target: T4, human PD-L1 (full length, on cells); experiment: flow cytometry on MDA-MB-231 cells, PE anti-human IgG secondary, MFI (PE)
Experimental: as §3, §4

Binder | Fold difference of KD (cynomolgus against human PD-L1) [1] | association response of the second antibody [2] | Kd [3] | koff [3] | kon [3] | association response of the second antibody [4] | association response of the second antibody [5] | association response of the second antibody [6] | association response of the second antibody [7] | association response of the second antibody [8] | EC50 (read off the curve) [9] | association response of the second antibody [10] | EC50 (read off the curve) [11] | EC50 (read off the curve) [12]
B1 | 2.3 fold | 0 nm | 0.029 nM | 3.6e-05 s⁻¹ | 1.2e+06 M⁻¹ s⁻¹ | 0 nm | 0 nm | 0.6 nm | 0 nm | 0.6 nm | – | – | – | –
B2 | 2.3 fold | 0 nm | 0.088 nM | 6.4e-05 s⁻¹ | 730000 M⁻¹ s⁻¹ | 0 nm | 0 nm | 0.6 nm | -0.1 nm | – | ~0.07 µg/mL | 0 nm | – | –
B3 | 2.3 fold | – | – | – | – | 0 nm | 0 nm | – | – | – | – | 0 nm | ~0.03 µg/mL | ~0.08 µg/mL
